B1: G1_neo2_40_1F (designed binder)
chain: STKKTQLLAEHALLDALMMLNLLPEPNEKLNRIITTMQSWIFTGKIDGDGAQELAKEVEELEQEHEKRGIDVEDYASNLKVILLELA
notes: also called G1_ne02_40_1F
B2: mouse interleukin-2 (mIL-2) (ligand, UniProt P04351 21-169, looked up)
chain: APTSSSTSSSTAEAQQQQQQQQQQQQHLEQLLMDLQELLSRMENYRNLKLPRMLTFKFYLPKQATELKDLQCLEDELGPLRHVLDLTQSKSFQLEDAENFISNIRVTVVKLKGSDNTFECQFDDESATVVDFLRRWIAFCQSIISTSPQ
notes: range 1-149; Baculovirus expression for SPR; also called MmIL-2; mouse IL-2
B3: G2_neo2_40_1F_dsn36 (designed binder)
chain: PKKKIQLLAEHALLDALMILNIVKTNSQNAEEKLEDYASNVEVILEEIARLMESGDQKDEAEKAKRMKEWMKRIKTTASEDEQEEMANRIITLLQSWIFS
notes: E. coli, N-terminal 6xHis tag and thrombin site

What was measured:
[1] = target: T1, human IL-2 receptor βγc heterodimer (hIL-2Rβγc), soluble (human, UniProt P14784 27-240; P31785 23-254, biotin on the C-terminal biotin acceptor peptide); assay: SPR, equilibrium titration; IL-2Rγ on streptavidin chip, saturating IL-2Rβ in solution
T1 construct: also called HsIL-2Rβγc; hIL-2Rβνc
T1 sequence 1: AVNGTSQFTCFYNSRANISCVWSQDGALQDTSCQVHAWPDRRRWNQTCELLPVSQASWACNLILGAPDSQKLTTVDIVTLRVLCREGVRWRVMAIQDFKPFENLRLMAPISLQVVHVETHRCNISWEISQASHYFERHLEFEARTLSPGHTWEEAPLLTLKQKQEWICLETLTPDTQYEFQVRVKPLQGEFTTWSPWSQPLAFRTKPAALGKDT
T1 sequence 2: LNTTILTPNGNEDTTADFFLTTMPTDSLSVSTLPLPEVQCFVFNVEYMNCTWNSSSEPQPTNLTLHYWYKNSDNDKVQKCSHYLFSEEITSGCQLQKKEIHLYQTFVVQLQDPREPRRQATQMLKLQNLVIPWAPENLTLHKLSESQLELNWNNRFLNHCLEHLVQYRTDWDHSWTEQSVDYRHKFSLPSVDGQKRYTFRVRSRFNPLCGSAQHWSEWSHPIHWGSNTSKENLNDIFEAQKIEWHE

[2] = target: T2, mouse IL-2 receptor βγc heterodimer (mIL-2Rβγc), soluble (mouse, UniProt P16297 27-240; P34902 23-263, biotin on the C-terminal biotin acceptor peptide); assay: as above
T2 construct: extracellular domain; also called MmIL-2Rβγc; mIL-2Rβνc
T2 sequence 1: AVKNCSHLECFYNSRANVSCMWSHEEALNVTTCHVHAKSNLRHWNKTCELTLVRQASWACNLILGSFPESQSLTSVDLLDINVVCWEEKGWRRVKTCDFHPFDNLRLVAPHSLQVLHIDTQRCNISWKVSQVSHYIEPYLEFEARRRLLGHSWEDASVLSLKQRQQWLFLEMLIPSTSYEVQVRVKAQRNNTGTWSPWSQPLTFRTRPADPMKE
T2 sequence 2: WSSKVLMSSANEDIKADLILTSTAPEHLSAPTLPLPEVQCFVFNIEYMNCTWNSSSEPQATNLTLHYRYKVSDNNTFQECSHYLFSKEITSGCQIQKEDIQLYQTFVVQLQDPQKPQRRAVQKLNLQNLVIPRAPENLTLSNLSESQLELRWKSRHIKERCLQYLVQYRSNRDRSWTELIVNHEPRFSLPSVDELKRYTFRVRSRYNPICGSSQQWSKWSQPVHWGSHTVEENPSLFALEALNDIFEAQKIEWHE

Binder	Kd [1] [µM]	Kd [2] [µM]
B1	0.0023	0.0079
B2	8.03	0.126
B3	0.114	0.569
